Target: the molecule itself
Assay: native gel or EMSA; NATIVE-PAGE (12% in the methods, 10% in the legend of Fig. 3a) of purified protein loaded without any treatment, 10 ug (Fig. 3a) or 20 ug each of wild type and mutant (Fig. 2a); band at ~115 kDa against ~36 kDa on SDS-PAGE

B1: MSMEG_3955 from Mycobacterium smegmatis, recombinant wild-type protein (enzyme, Mycobacterium smegmatis mc2 155, UniProt A0QZA6 1-334, looked up)
chain: MNTHFPDTETIHAALALAMRAPSIHNSQPWQWRVGERSVHLYADLDRHLTSTDPDSRDLLLSCGAALHHCVIAFAALGWYASVHRLPNPAEPEHLASIELRRQTPTDLDIALAAAIPRRRTDRRHYSAWPVSHSDIAMMGARAARAGVMLRRVESLSRLQDIVAESIARHAADDGYLRELTAWSGKYASTAGVPARSAPKPEPGAPLSSRMFAGAALKQPDTGAGADEGAVVLALGTADDTRMSRLRAGEATSLILLTATAMGLATCPVTEPLEISETRDAVQAEVFGASAFPQMMLRVGWAPVNADPLPPTPRRHVADAVRWLDGSPFEPESE
notes: MSMEG_3955, Mycobacterium smegmatis mc2 155, NADPH-dependent FMN oxidoreductase of the Acg family; gene amplified from genomic DNA with primers from the ATG to the stop codon (~1005 bp amplicon, ~36 kDa protein); tag removal is not described; also called protein MSMEG_3955; homologue of Rv3131; source: E. coli BL21 (DE3), pET-28a, purified (Ni-NTA)
stoichiometry N: 3
